Reference: the supplement of paper PMC9112550, “Optimization of the antimicrobial peptide Bac7 by deep mutational scanning” (BMC Biology, 2022)

The sequences below were run on Escherichia coli TOP10 (assay: shrunken log2 fold change of peptide-encoding DNA abundance (4.5 h post-induction vs induction); higher = less antimicrobial activity (less host growth inhibition)). Conditions: time post-induction: 4.5 h; library: site-saturation at positions 5, 18, 19, 20.
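Note: peptides expressed intracellularly from a pBAD plasmid library in pooled LB shake-flask culture, induced with 0.3% L-arabinose, DNA abundance read by NGS, three biological replicates, DESeq2 with apeglm shrinkage.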

In order of rising “shrunken log2 fold change” value:
1. RRIRIRPPRLPRPRPRPYDAPRP  -1.48
2. RRIRHRPPRLPRPRPRPYNPPRP  -1.07
3. RRIRCRPPRLPRPRPRPCYPPRP  -0.743
4. RRIRFRPPRLPRPRPRPMHNPRP  -0.52
5. RRIRIRPPRLPRPRPRPQKCPRP  -0.506
6. RRIRFRPPRLPRPRPRPRFIPRP  -0.498
7. RRIRYRPPRLPRPRPRPQGVPRP  -0.464
8. RRIRSRPPRLPRPRPRPSIRPRP  -0.41
9. RRIRPRPPRLPRPRPRPYIAPRP  -0.395
10. RRIRHRPPRLPRPRPRPVDKPRP  -0.308
11. RRIRVRPPRLPRPRPRPGIEPRP  -0.28
12. RRIRDRPPRLPRPRPRPWMYPRP  -0.267
13. RRIRRRPPRLPRPRPRPYAIPRP  -0.252
14. RRIRMRPPRLPRPRPRPYNPPRP  -0.21
15. RRIRLRPPRLPRPRPRPHNRPRP  -0.205
16. RRIRLRPPRLPRPRPRPINAPRP  -0.177
17. RRIRMRPPRLPRPRPRPKWYPRP  -0.171
18. RRIRVRPPRLPRPRPRPMMDPRP  -0.154
19. RRIRNRPPRLPRPRPRPFHLPRP  -0.147
20. RRIRQRPPRLPRPRPRPRVMPRP  -0.139
21. RRIRSRPPRLPRPRPRPPVKPRP  -0.136
22. RRIRFRPPRLPRPRPRPQPEPRP  -0.119
23. RRIRWRPPRLPRPRPRPYHKPRP  -0.118
24. RRIRERPPRLPRPRPRPSAGPRP  -0.118
25. RRIRCRPPRLPRPRPRPIHEPRP  -0.115
26. RRIRARPPRLPRPRPRPPKYPRP  -0.109
27. RRIRKRPPRLPRPRPRPTWVPRP  -0.105
28. RRIRNRPPRLPRPRPRPCVTPRP  -0.0849
29. RRIRDRPPRLPRPRPRPSETPRP  -0.0751
30. RRIRKRPPRLPRPRPRPYVCPRP  -0.0742
31. RRIRNRPPRLPRPRPRPWQSPRP  -0.0702
32. RRIRIRPPRLPRPRPRPLVAPRP  -0.0566
33. RRIRIRPPRLPRPRPRPDWAPRP  -0.0489
34. RRIRPRPPRLPRPRPRPMIAPRP  -0.0488
35. RRIRRRPPRLPRPRPRPMSYPRP  -0.0379
36. RRIRWRPPRLPRPRPRPGIIPRP  -0.0357
37. RRIRRRPPRLPRPRPRPHHKPRP  -0.0355
38. RRIRSRPPRLPRPRPRPSQAPRP  -0.0295
39. RRIRDRPPRLPRPRPRPESTPRP  -0.0182
40. RRIRFRPPRLPRPRPRPDWLPRP  -0.0152
41. RRIRNRPPRLPRPRPRPKDVPRP  -0.0116
42. RRIRKRPPRLPRPRPRPLECPRP  -0.00691
43. RRIRKRPPRLPRPRPRPQKEPRP  -0.00503
44. RRIRMRPPRLPRPRPRPLNFPRP  -0.00433
45. RRIRNRPPRLPRPRPRPHSCPRP  -0.00198
46. RRIRKRPPRLPRPRPRPDNDPRP  -0.00188
47. RRIRKRPPRLPRPRPRPFELPRP  -0.000946
48. RRIRSRPPRLPRPRPRPAWTPRP  0.0161
49. RRIRERPPRLPRPRPRPWDFPRP  0.0275
50. RRIRWRPPRLPRPRPRPMGPPRP  0.041
51. RRIRKRPPRLPRPRPRPTYGPRP  0.043
52. RRIRLRPPRLPRPRPRPYRFPRP  0.0498
53. RRIRHRPPRLPRPRPRPESSPRP  0.087
54. RRIRLRPPRLPRPRPRPVGNPRP  0.0885
55. RRIRGRPPRLPRPRPRPSDTPRP  0.116
56. RRIRGRPPRLPRPRPRPMNHPRP  0.116
57. RRIRWRPPRLPRPRPRPQACPRP  0.145
58. RRIRWRPPRLPRPRPRPGPSPRP  0.223
59. RRIRNRPPRLPRPRPRPELMPRP  0.232
60. RRIRFRPPRLPRPRPRPCHDPRP  0.236
61. RRIRNRPPRLPRPRPRPQCFPRP  0.242
62. RRIRARPPRLPRPRPRPLNWPRP  0.245
63. RRIRLRPPRLPRPRPRPFFGPRP  0.246
64. RRIRSRPPRLPRPRPRPPLRPRP  0.249
65. RRIRFRPPRLPRPRPRPKWLPRP  0.251
66. RRIRQRPPRLPRPRPRPGAWPRP  0.256
67. RRIRLRPPRLPRPRPRPEVWPRP  0.276
68. RRIRRRPPRLPRPRPRPSPFPRP  0.292
69. RRIRRRPPRLPRPRPRPDLHPRP  0.308
70. RRIRVRPPRLPRPRPRPACAPRP  0.322
71. RRIRPRPPRLPRPRPRPSCWPRP  0.36
72. RRIRPRPPRLPRPRPRPGAMPRP  0.454
73. RRIRKRPPRLPRPRPRPPQNPRP  0.723
74. RRIRARPPRLPRPRPRPCWEPRP  0.755
75. RRIRGRPPRLPRPRPRPSLEPRP  0.827
